According to article PMC7615710, “ASPP2 binds to hepatitis C virus NS5A protein via an SH3 domain/PxxP motif-mediated interaction and potentiates infection” (The Journal of general virology, 2023):

B1: HCV [4a.ED43] NS5A PRR peptide (peptide)
peptide: WLPPAKQPPVPSPRRKRTVQL
notes: source: synthetic peptide, custom made (TUCF)
B2: Lyn SH3 domain (65-122) (domain or fragment)
chain: GDIVVALYPYDGIHPDDLSFKKGEKMKVLEEHGEWWKAKSLLTKKEGFIPSNYVAKLN
B3: HCV [2a.JFH-1] NS5A PRR peptide (peptide)
peptide: WLPPPKKAPTPPPRRRRTVGL
notes: also called NS5A (2a); NS5A PRR peptide (JFH-1); source: synthetic peptide, custom made (TUCF)
B4: ASPP2 C-terminal domain (925-1128) (domain or fragment)
chain: NPLALLLDSSLEGEFDLVQRIIYEVDDPSLPNDEGITALHNAVCAGHTEIVKFLVQFGVNVNAADSDGWTPLHCAASCNNVQVCKFLVESGAAVFAMTYSDMQTAADKCEEMEEGYTQCSQFLYGVQEKMGIMNKGVIYALWDYEPQNDDELPMKEGDCMTIIHREDEDEIEWWWARLNDKEGYVPRNLLGLYPRIKPRQRSLA
notes: also called ASPP2 CTD
B5: ASPP1 C-terminal domain (887-1090) (domain or fragment)
chain: NPLALLLDASLEGEFDLVQRIIYEVEDPSKPNDEGITPLHNAVCAGHHHIVKFLLDFGVNVNAADSDGWTPLHCAASCNSVHLCKQLVESGAAIFASTISDIETAADKCEEMEEGYIQCSQFLYGVQEKLGVMNKGVAYALWDYEAQNSDELSFHEGDALTILRRKDESETEWWWARLGDREGYVPKNLLGLYPRIKPRQRTLA
notes: also called ASPP1 CTD
B6: Fyn SH3 domain (85-142) (domain or fragment)
chain: not shown
B7: LASP1 SH3 domain (205-261) (domain or fragment)
chain: KRYRAVYDYSAADEDEVSFQDGDTIVNVQQIDDGWMYGTVERTGDTGMLPANYVEAI
B8: Grb2 SH3 domain (1-58) (domain or fragment)
chain: MEAIAKYDFKATADDELSFKRGDILKVLNEECDQNWYKAELNGKDGFIPKNYIEMKPH
B9: HCV [1b.Con1] NS5A PRR peptide (peptide)
peptide: WLPPAKAPPIPPPRRKRTVVL
notes: as for B1

How the values were obtained:
Assay in all cases: ITC; 450 or 300 uM NS5A PRR peptide (syringe) titrated to 30 uM ASPP CTD or SH3 domain (cell), 12 °C, 25 mM HEPES pH 7.5, 150 mM NaCl, 500 uM TCEP; 25 steps of 10 ul; AB hetero association model (SEDPHAT)
Details in all cases: both partners purified
[1] = target: B5
[2] = target: B4
[3] = target: T1, HCV [1a.1] NS5A PRR peptide (Hepatitis C virus genotype 1a (strain 1))
T1 construct: source: synthetic peptide, custom made (TUCF)

Binder	Kd [1] [µM]	Kd [2] [µM]	Kd [3] [µM]
B1	42.8	0.741	
B2			5.1
B3	3.78	0.0424	
B4			0.234
B5			9.27
B6			5.89
B7			2.3
B8			7.96
B9	6.7	0.0758	
